This note sets out measurements from the DeepSol protein solubility set.

The nature of the series: soluble on expression in E. coli; label from the status in PepcDB or PDB records.
As for “MSLDSLDKSKLERMLDIKEAHREGHLTLEEAKERMKKEVGSISPEEFAAAEQLFKERDQDECQNEDVRTMLQLFEGLINPIRPDLPFGHPIDAYLRENDKAKELLDQADALLERTFIPNPWIELMETLMGYKLHFARKQNQLYSTLEQKGFDRPSTTMWTYDDHIRDEMNKAMSLLREKDYDSFPAAYKEMAIVLRDLMEKEELILYPTSLKLISDKEFEEMKHGDREIGFFLIDMPELDAPAKQSKEAHGQSFMAELGALLAKHGMGTGGQDDKAILDVAEGKLTLEQINLLFRHLPVDISFVDENELVCFYTDTKHRVFPRSKGVIGREVRNCHPPKSVHIVEEIIDKFRRGEQDRAEFWINKPGVFIYIVYVAIRDADGRFRGVMEMMQDCTRIRSLEGSRTLLTEGHHHHHH”, the “soluble on expression in E. coli” value was “soluble”.

For the sequence “MGSDKIHHHHHHMFDWENVRHFLAVARIGTLSGAARSLKVDHATVSRRLSALEDEIKTRLIERLPRACKLTLIGQRVFELAQGMEEDAYAIERFVDASRSPLSGKVSLSAPPVLVAHFLAKHLADFRRVHPGVQLSVSGEARQISLSRREADVALRLVRPEEGTSVVRKLGRMSFDLYASRDYPHLHNPSAWEFISYDAGFTDMPQQKWLMSVARGRPIACEISDINGHLAATQAGAGVAGLPDFLADTDAKLQRVAYDGEPFSRDIWLAVHRDLRRSPHVRAVMDFLLKIVKENPAFTISG”, the “soluble on expression in E. coli” value was “not soluble”.

For “MAHHHHHHMGGVTLHKVNTCPWWQRKNYEIEKSFFLRSAPPPLRKKRNQLRQYNHAENNSYTNIYTIKNPLKCKVVDKVSLVRQNALHEVYNVEIDHGGMFKYLEGHSCGVIPYYEDLIQADDKNNSQEGRKKRGNKFARLYSISSTNAENLSFAIRIHSYQEEENGCMQHKYGYCSGYIKELKKNDNIYITGAHGCFLLPDNVSEKNTNLILIATGTGISPYISFLKKIWGYQPGIHQQKKTYNGQVYLYYGVYYEDSILYLPELKYFQNMYPNNFHVEYVFSSIKNSDGTSHHVQDEIYKKRENFLRLFNELNCELYICGHKSIRAKIMDILKGENPVLDSEKKKRVHVEVY”, the “soluble on expression in E. coli” value was “not soluble”.

“MERMMLIAFDLEGTLTDMVSWELLHKKFETCGLAKKNAELFFSGRISYEEWAKLDASLWKGRRREEVEEVFKEVSLKDYAEELFRWLKEKGFKTAIITGGLMCLAKKVAEKLNPDYVYANELVFNEKGEITGDVIVRVTFDNKGEILERLKRELNPTLTVAVGDWKNDLPMFEVADISISLGEDHADYLAKDLREVKKILKEVLLETEKL”: the “soluble on expression in E. coli” value was “soluble”.

As for “MSLTEDLNKRVEQAAQGITPQTKPDERRRYLGSLRERVLVRLNNTEVKDPKLTALFLKHITDFKGYTILINGNITDDGFLGEVEAACSKEDIPFTLVNNETAKTGPEDTAILVVAKTAINHPRVEINQVYPPEMPKTELSAPSKKHESFWHHLFHKDEGHHHHHH”, the “soluble on expression in E. coli” value is listed as “soluble”.

On to “MVVSIITPLYKVEDFIARCADSLFRQSYTEIEYIFVDDCSSDRSVEVLLQVAERYPQLQQQIRILHHESNRGVAAARETGLAAATGEYVYWVDADDWIEPDAIEKMVVRSEQGQKDIIACGWYLCFRQNERRMPMPCYADAETALRGMLSGTMRWNLWLYMIKRDLYLMNDIHFMEGENVGEDMLVLIKLFSHAKSIGFVKDAFYHYVKQNENSLTRLSPEQQMKRQMRNLQAATDYLVTHFIGKYEKEINFFKLNAKMPLLISNDKNSYRTWTACFPEANKYIMANKRQTLRMRLVQLMAAKRQFWLVELYYQLVFKFVYGILYK”, for which the “soluble on expression in E. coli” value is given as “not soluble”.

As to “MLTETEGRAAVKLARKTIEIFLSKGKSPRPDASGVELSPVFEEYRGVFVTLTEGGLLRGCIGHPYPDSTLKEAILDSAISAATRDPRFPTVEQDEMKNILVEVTILTQPEKINASPKELPDKVEIGKHGLIVKQGYCQGLLLPQVAPENDMDSIDFLSHTCMKAGLSPDAWVKGAEVYCFEGQIFKEKEPDGEVIEEKFLEHHHHHH”, the “soluble on expression in E. coli” value is given as “soluble”.

As to “SISKEEILKPIWYAFTALDLDRNGKVSKSQLKVLSHNLCTILKIPHNTSALEEHFKDDDEGPVSTQGYMPYLNTFILSKIQPNFDFVELNKMCWTLSAPKHINTMNLLMSEKDAFRVWCIFNFLSEDKYPLTIVTEELEYFLRKLLTAMGCSWNEGRFEDYKMHLNAKTWKHKVSKHEGLLKLVQPGGKTPSKMTNWGQAAFTESELNELEKMWQVNKNRSEEE”, the “soluble on expression in E. coli” value is listed as “soluble”.

As for “MGSDKIHHHHHHLETSPSSSVSGNELLGTATNALVSLNGVYRAMYTAGVSNSSNTHQCFGITAYNLVADVMGEDCIMNGQGSGWFWYDCVYNVKSRYTSTGWRSYDMWNGYYTWISNVNYILAEEETMSGSETEKNYVLGQAYAVRAYSYFMLAQMFSRTYKGHESEPCVPLYTEPTDIATEGKGRATIEEVYQQITSDLDKAITMLGNSGKRKHISHINEAVASGIKARVALVMEDWQTALDAANAAISKSGCSVGTGTAVTGGMNDATANNVMWAAEIIADQSGMYAGFFTHMDADQGKYGASARKQINKLLYAKLGTNDVRKKWWNPQDENNEKNGYQQEKFKFKDYAKWTGDYIFMRIEEMFLTAAEASCRLNDDKGARLMLNSLMQKRDEDYTCKKTGTALGKLTSDETGSLLEEIIIQRRIELWGEFGRIYDIRRLKQGFRRTADMGWPSSALIAGTDTEDPESYAWVLTIPQTEFDGNPNMDPSKDQNPIGDHK”, the “soluble on expression in E. coli” value was “not soluble”.

“MELFLTGVVLKPKGLKGELKVKPVTDFPESFLTRREYYIGKTPEDAVLRKVQSARFHQGFAWLVFEGAGSREGAEALVGCGLYVTRDALVAMPDDRAYIHELIGLDVFDETEGRVGKISDVLQMPAHDVYEVDTGDRKVLIPAVEDFITETDLEKGMVRLKRFKEFLLEHHHHHH”: the “soluble on expression in E. coli” value is recorded as “soluble”.

Regarding “KTRPYMEEVLYVWKLKQLHNKIFRKLKSIKAAASNDDVKALTTLKFYYTTQRQVFELDNNTLTMSSVNKELEAIDQIEVDKSLHLDIASFEEGWIDTY”, the “soluble on expression in E. coli” value is “soluble”.

Turning to “MDIEIENHPLEPFLPANARLLMLGSFPPQKKRWSMDFYYPNLNNDMWRIVGLLFFNNKDYFLNETRKAFCRERIISFLNDKGIALFDTASAIRRLQDNASDKFLEVVQPTDISRLLGQLPECKAIVTTGQKATDTLRAQFEVEEPKVGDFSEFVFDGRPVRLYRMPSSSRAYPLALDKKAAAYRTMYQDLQMLNIELEHHHHHH”, the “soluble on expression in E. coli” value is “soluble”.

“MTDDVDTHIHEKFDLQKRLGKGAYGIVWKAYDKRSRETVALKKIFDAFRNPTDSQRTFREVMFLQEFGKHPNVIKLYNIFRADNDRDIYLAFEFMEADLHNVIKKGSILKDVHKQYIMCQLFRAIRFLHSGNVLHRDLKPSNVLLDADCRVKLADFGLARSLSSLEDYPEGQKMPDLTEYVATRWYRSPEILLAAKRYTKGVDMWSLGCILAEMLIGRALFPGSSTINQIERIMNTIAKPSRADIASIGSHYAASVLEKMPQRPRKPLDLIITQSQTAAIDMVQRLLIFAPQKRLTVEQCLVHPYVVQFHNPSEEPVLNYEVYPPLPDHIQLSIDDYRDRLYEMIDEKKASFKRIQHEKIRPYGEDKSRAPIAQAECSDTDYDTARSLQRTTSMDKNNSSSHDSSSGTLRERAASAESRTSKDSNGEMRNGNGNTPSSIKQRRRSVERARLFANIKPSKILHPHKLISNY”: the “soluble on expression in E. coli” value is “not soluble”.

Take “MELLFLGTGAGIPAKARNVTSVALKLLEERRSVWLFDCGEATQHQMLHTTIKPRKIEKIFITHMAGDHVYGLPGLLGSRSFQGGEDELTVYGPKGIKAFIETSLAVTKTHLTYPLAIQEIEEGIVFEDDQFIVTAVSVIHGVEAFGYRVQEKDVPGSLKADVLKEMNIPPGPVYQKIKKGETVTLEDGRIINGNDFLEPPKKGRSVVFSGDTRVSDKLKELARDCDVMVHEATFAKEDRKLAYDYYHSTTEQAAVTAKEARAKQLILTHISARYQGDASLELQKEAVDVFPNSVAAYDFLEVNVPRGKLAAALEHHHHHH”: the “soluble on expression in E. coli” value is recorded as “soluble”.

Consider “MIGCLCIHGFTGSPEEVAPLADYLRERTDWMIETPTLPGHGSELRLKGITYDQWIAAAEQAFLALHHRCSVVYVIGFSMGGVIAVYLAEKYPVAKLVLLSAAFYYVNPRQLWRDIREMFANGWKGAREHPLFLRYRNKMMATPFSAVREFRKLVRDVRPRLPRVAAPALIVQGEKDGIVPLKSAYYLYEQIGSAEKKLLLLPNSFHHVCHSIDRHVLFAEVETFLRAAHAHHCKSPHNMV”, for which the “soluble on expression in E. coli” value is on record as “not soluble”.

For “MVEFRNEVSHQWTRRHTLRKFRAGMLSRDSLCDADFVLVTASKFHGSRVPTPCPVCDSDQLRHVLWVYGESLGRASGSARTMEEIVTFAQSGKEFTVHTVEVCPDCRWNHLLNSVTAMPQ”, the “soluble on expression in E. coli” value is on record as “not soluble”.

For the sequence “MSEGSKQNKKSTDAFSKYMRKLFGIQEITESQREYIEKLERELESAKGTLSTREEKEMIRGLVKFGNIMVKQIMCPRMDMAAVDIALNYEQLQEYISTCGFSRIPVYKESADKIEGVLNIKDLFPFYNKEKDFNWQQLIRTVEFIPETKLIEELLREFQLKHLHMAIVVDEYGGTAGLITMEDVIEEIVGDIHDEYDDDEKPYAQLSDTSYLFEGKISLVDFYKAIELDKDIFDEVKGESETLGGLLLNINSDLPRLGDEIIYEGYVFKIDAVNSKRILRVKVTVPENSENEK”, the “soluble on expression in E. coli” value is “soluble”.

As to “ADSVFISGHKNADMDSLGAALGIWRMSRLHDLTAYIIIDDQNLQRDVKLVIGKINDEVDAANEKLKNQATDGKTPKLIEQPFITEKKALSLATDQSLLVLVDHSRPSISAAGQLLEKLKSSLIVIDHHRIADESFSEKPILFYVEQYASSTCELVTELLGYEDRRKSPLTKVEATALLGGIQLDTKGFTSHSGSRTFDAASFLRAAGADAQLLSSFGKESK”, the “soluble on expression in E. coli” value is on record as “not soluble”.

For the sequence “MSLARPLSFHEDRLFPSDPATRSYARGLYALVKDLPIISPHGHTDPSWFATNAPFQDATDLLLAPDHYLFRMLYSQGVSLDALKVRSKAGVPDTDPREAWRVFASHFYLFRGTPSWVWLNHVFSQVFGFTEFLEASNADDYFDRITAALATDAFRPRALFDRFNIETLATTEGPHESLQHHAAIRESGWGGHVITAYRPDAVIDFEDERSPRAFERFAETSGQDVYSWKSYLEAHRLRRQAFIDAGATSSDHGHPTAATADLSDVEAEALFNSLVKGDVTPEKAELFRAQMLTEMAKMSLDDGLVMQIHPGSHRNHNVGLLNSHGRDKGADIPMRTEYVDALKPLLTRLGNDPRLSIILFTLDETTYSRELAPLAGHYPVLKLGPSWWFHDSPEGMMRFREQVTETAGFYNTVGFNDDTRAFLSIPARHDVARRVDSAFLARMVAEHRMDLVEAEELIVDLTYNLPKKAYKLDQRPDWARPATLRAAAEEGHHHHHH”, the “soluble on expression in E. coli” value is given as “soluble”.

Take “MSLDTPRIILHNSDTAPLTHWLRAAFPQADFRECNSYEALPALIEGYRPEVVYSVRFAGTPGFPRDALFGPGGPRWIANGGAGTDHYGQWDPGQTTVTNTAGVAAEMMAEYILGGFLHFSLDVPGLQKDKAARVWNARTVRPLAGKTLLIIGLGHTGRAVAARSKAFGMKVLGTRARPKPMENVDEVHAADDLHDLLPHADFIAVSTPLIPATRGLIGAQEIAAMKSGVIFADVSRGGVVDQTALYDALSVGHVAAAALDVFETEPLPEISPLWALENVIISPHCSSVFAEWEEASFELFLQNLGRWMRGEGHHHHHH”: the “soluble on expression in E. coli” value is listed as “not soluble”.

For the sequence “MAHHHHHHMDKYGDRKLQEGIYKLNNKKIKGYIPFQSASSIIPKQIRDKGIIEVMKELEKREEELNEKTKNDQEKHKVNKMNLFKSNSMNVKRKHVFSSFKIPRKI”, the “soluble on expression in E. coli” value is listed as “soluble”.

As to “SAKNAYTKLGTDDNAQLLDIRATADFRQVGSPNIKGLGKKAVSTVYNGEDKPGFLKKLSLKFKDPENTTLYILDKFDGNSELVAELVALNGFKSAYAIKDGAEGPRGWLNSSLPWIEPKKT”, the “soluble on expression in E. coli” value was “soluble”.
